Measurements: patent US20220144957A1 (IMMUNECENT BIOTECHNOLOGY, published 2022)
Like-named read-outs stand apart in the source and are kept apart here.

T1: human IFNAR1, full length (IFNAR1-aa1-557) (human, UniProt P17181 28-557)
T1 sequence (looked up): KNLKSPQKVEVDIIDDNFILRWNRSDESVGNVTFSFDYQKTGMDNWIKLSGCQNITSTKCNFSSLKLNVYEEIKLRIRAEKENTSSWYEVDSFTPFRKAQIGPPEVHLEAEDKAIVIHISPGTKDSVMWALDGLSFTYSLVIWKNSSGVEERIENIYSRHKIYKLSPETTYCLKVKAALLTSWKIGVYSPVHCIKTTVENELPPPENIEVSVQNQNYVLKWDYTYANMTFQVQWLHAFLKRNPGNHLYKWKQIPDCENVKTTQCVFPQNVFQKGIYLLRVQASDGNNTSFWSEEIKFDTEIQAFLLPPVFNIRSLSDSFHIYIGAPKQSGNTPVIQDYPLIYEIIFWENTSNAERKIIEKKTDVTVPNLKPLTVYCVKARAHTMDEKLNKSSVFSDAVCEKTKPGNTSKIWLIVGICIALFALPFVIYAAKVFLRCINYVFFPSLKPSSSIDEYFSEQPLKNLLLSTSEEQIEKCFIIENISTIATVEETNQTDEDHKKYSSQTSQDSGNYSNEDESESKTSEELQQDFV

T2: human/mouse chimeric IFNAR1 variant IFNAR1-m149-214 (human, with residues 149-214 replaced …, UniProt P17181 28-557)
T2 construct: expressed on 293T cells
T2 chain: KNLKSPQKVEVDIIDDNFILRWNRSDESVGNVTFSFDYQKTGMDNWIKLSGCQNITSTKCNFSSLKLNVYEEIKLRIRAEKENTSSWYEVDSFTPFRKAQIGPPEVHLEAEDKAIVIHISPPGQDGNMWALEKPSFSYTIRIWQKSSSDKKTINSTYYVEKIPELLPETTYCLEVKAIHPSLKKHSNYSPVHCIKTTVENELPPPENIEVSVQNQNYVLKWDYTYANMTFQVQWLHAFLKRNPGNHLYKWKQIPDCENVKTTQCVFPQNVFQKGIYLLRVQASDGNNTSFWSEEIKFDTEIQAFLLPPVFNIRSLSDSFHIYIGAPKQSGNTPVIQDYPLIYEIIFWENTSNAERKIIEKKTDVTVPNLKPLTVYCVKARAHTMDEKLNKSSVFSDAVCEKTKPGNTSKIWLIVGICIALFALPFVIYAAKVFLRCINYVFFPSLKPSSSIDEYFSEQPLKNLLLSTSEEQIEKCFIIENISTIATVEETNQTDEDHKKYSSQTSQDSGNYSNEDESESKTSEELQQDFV


Columns and labels:
[1] = target: T1, human IFNAR1, full length …; assay: cell-based or functional assay
[2] = target: T2, human/mouse chimeric IFNAR1 variant …; assay: flow cytometry, 293T cells overexpressing IFNAR1-m149-214, MFI
Protocol: (§1) After the incubation, the cells were centrifuged and re-suspended with 200 μL of FACS buffer, before next centrifugation and re-suspension.
(§2) PE-labeled goat anti-mouse IgG antibody (Biolegend) diluted in FACS buffer at 1:400 was added to each well. The cells were re-suspended and incubated at 4° C. for 30 min in the dark. After the incubation, the plate was centrifuged, the supernatant was discarded, and the cells were washed once as described above and re-suspended by adding 200 μL FACS buffer. Finally, the re-suspended cells were analyzed using a flow cytometer Guava (Millipore) for cellular GFP and PE signals.

[3] = target: T2, human/mouse chimeric IFNAR1 variant …; assay: as above
Protocol: as §1, §2

Row | Binder | fold decrease in percentage of GFP positive reporter cells with serum from SLE patients [1] | binding result [2] | binding result [3]
1 | anti-human IFNAR1 monoclonal antibody 7G4 (antibody, V domains shown, Mouse monoclonal antibody from hybridoma CGMCC No. 16286) VH: QVQLQQPGAELVKPGAPVKLSCKASGYTFTSYWMNWVRQRPGRGLEWIGKIDPSDSETHFNQKFRDKATLTVDKSSTTAYIQLSSLTSEDSAVYYCARGGRISFDYDAALDYWGQGTSVTVSS VL: DILMTQSSSSFSVSLGDRVTITCKSSEVIYNRLAWFQQKPGNAPRLLISGATTLESGFPSRFSGSGSGKDYTLSITSLQIEDVSTYYCQQYWNKPFTFGSGTKLEVK | ~3 fold | binds | –
2 | anti-human IFNAR1 monoclonal antibody 10C5 (antibody, V domains shown, Mouse monoclonal antibody from hybridoma CGMCC No. 16287) VH: QVQLQQPGTELVKPGSPVKLSCKASGYTFTSFWLNWVQQRPGRGLEWIGKIDPSDSEIRYNQKFKDKATLTVDKSSNTAYIQLSSLTSEDSAVYYCARGGGIYYDYDGAMDYWGQGTSVTVSS VL: DIQMTQSSSSFSVSLGDRLTITCKASEVIYNRLAWFQQKPGNAPRLLISGATSLETGVPSRFSGSGSRKDYTLSISSLQTEDVATYYCQQYWSSPFTFGSGTKLEIK | ~3 fold | – | binds
